# Results reported in publication PMC10633859.
# B1: fluorescent dsDNA 47 bp (dsDNA)
# DNA 1: CAGATCTACCGAATCAGTCCGACGACGCATCTGCACTACGAGGATAC
# DNA 2: GTATCCTCGTAGTGCAGATGCGTCGTCGGACTGATTCGGTAGATCTG
# How the values were obtained:
# [1] = biological target: SIRT6(1-300) (human, UniProt Q8N6T7 1-300); test: EMSA
# [2] = biological target: SIRT6 full length (SIRT6FL) (human, UniProt Q8N6T7 1-355); test: EMSA
# Sequence of SIRT6 full length (SIRT6FL) (Q8N6T7 whole entry): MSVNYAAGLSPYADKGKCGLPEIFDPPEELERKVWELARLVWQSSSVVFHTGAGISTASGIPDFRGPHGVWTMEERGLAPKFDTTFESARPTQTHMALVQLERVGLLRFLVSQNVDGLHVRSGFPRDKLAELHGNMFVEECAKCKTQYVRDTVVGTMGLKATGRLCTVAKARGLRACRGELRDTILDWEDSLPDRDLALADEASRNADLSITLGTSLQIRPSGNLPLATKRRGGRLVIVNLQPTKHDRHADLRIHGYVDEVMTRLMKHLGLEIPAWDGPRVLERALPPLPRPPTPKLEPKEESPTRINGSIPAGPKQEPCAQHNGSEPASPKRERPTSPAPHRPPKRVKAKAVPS
# Sequence of SIRT6(1-300) (Q8N6T7 1-300): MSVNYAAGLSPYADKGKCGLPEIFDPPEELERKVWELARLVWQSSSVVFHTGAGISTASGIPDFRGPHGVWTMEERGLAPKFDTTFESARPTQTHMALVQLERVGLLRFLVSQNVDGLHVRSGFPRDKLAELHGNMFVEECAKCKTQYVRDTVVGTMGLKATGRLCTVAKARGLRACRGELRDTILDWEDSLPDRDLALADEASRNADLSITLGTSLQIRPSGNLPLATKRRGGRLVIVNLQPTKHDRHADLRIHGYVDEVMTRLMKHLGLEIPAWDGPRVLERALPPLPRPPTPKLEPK
binder,measurement,setting,value
B1,Kd,[1],9.68 ± 0.39 µM
same,Kd,[2],1.93 ± 0.1 µM
